assay: yeast display, Sf9 membrane polyspecificity reagent, FACS + sequencing; frameworks hold sequencing errors
Method in brief: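 Synthetic nanobody libraries on Saccharomyces cerevisiae BJ5465 were galactose-induced for 36–48 hours, stained 1 hour at 4 °C with 10% biotinylated, detergent-solubilized Sf9 membrane reagent and enriched on streptavidin microbeads. FACS then separated cells into low and high (top ~1%) gates by anti-HA (expression) and streptavidin (reagent binding) fluorescence. Genes were colony-PCR amplified, MiSeq 2 × 250 sequenced and CDR-length filtered. A clone's polyreactivity label is that of its gate of origin.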

| Sequence | polyreactivity (PSR sort gate) |
| --- | --- |
| QVKLVESGGGLVQAGGSLRLSCAASGFTFRRYAMGWYRQAPGKERELVAGITSGGSTYYADSVKGRFTISRDNAKNTVYLQMNSLKPEDTAVYYCNTKVISRTSERRGNGFTRYDYWGQGTQVTVSS | low polyreactivity |
| QVKLVESGGGLVQAGGSLRLSCAASGFTFYYYTMGGSRQAPGKERELVAAITSRGGNTYYADSVKGRFTISRDYEKNTVYLQMNSLKPEDTAVYYCAACLFSSRCYGYWGQGTQVTVSS | high polyreactivity |
| QVKLVESGGGLVQAGGSLRLSCAASGFTIRSYVMGWYRQAPGKERELVAAIRRSGGSTYYADSVKGRFTISRDNAKNTVYFQMNSLKREDTAVYYCAAYIWWRDYIEFDYWGQGTQVTVSS | high polyreactivity |
| QVKLVESGGGLVQAGGSLRLSCAASGGIFSPNAMGWYRHAPGKERELVAAISSNGGSTNYADSVKGRFTISRDNAKNTVYLQMNSLKPEDNAVYYCAKVYRSIGPNVSRYGLSYYYWGQGTQVTVSS | low polyreactivity |
| QVKLVESGGGLVQAGGSLRLSCAASGGNFGNYAMGWYRQAPWKERELVATIRYRGGSTYYADSVKGRFTISRDNAKITVYLQMNSLIPEDTAVFYCAARRSHPQDPRFRYGYWGQATQVTVSS | high polyreactivity |
| QVKLVESGGGLVQAGGSLRLSCAASGGNFYRYAMGWYRQAPGKERELVAAITRGDSTNYADSVKGRFTISRDNAKNTVYLQMNSLKPEDTAVYYCNAAVSARQNDTGGFQGDYWGQGTQVTVSS | low polyreactivity |
| QVKLVESGGGLVQAGGSLRLSCAASGLTFDHNVMGWYRPAPGKERELVAAISRSGSSTYYADSVKGRFTISRDNAKNTVYLQMNSLKPEDTAVYYCAAARSRYSYATGFDYWGQGTQVTVSS | high polyreactivity |
| QVKLVESGGGLVQAGGSLRLSCAASGLTYLYTMGWSRQAPGKERELVAAITRSGRTYYADSVKGRFTISRDNAKNTVYLQMNSLKPEDTAVYYCATRTGYQQPDGRYYYWGQGTQVTVSS | high polyreactivity |
| QVKLVESGGGLVQAGGSLRLSCAASGRIFLWYAMGWYRQEPGKERELVAAISSNGGSTRYAHSVKGRFTISRDNAKNTVYLQMNSLKPEDTAVYYCNADVHWNRYPYGGNGYGYWGQGTQVTVSS | low polyreactivity |
| QVKLVESGGGLVQAGGSLRLSCAASGRIFYGYTMVWYRQAPGKERELVAAISSSGGSTYYADSVKGRFTISRDNAKNTVYLQMISLKPEDTAVYYCAAYVPYSPYHVEFNYWGQGTQVTVSS | high polyreactivity |
| QVKLVESGGGLVQAGGSLRLSCAASGRTFGIYAMGWYRQAPGKERELVAAITWSGDSTYYADSVKGRFTISRDNAKNTVYLQINSLKPEDTAVYYCAADYVGVTSVRYDYWGQGTQVTVSS | low polyreactivity |
| QVKLVESGGGLVQAGGSLRLSCAASGSIFLGNAMGWYRQAPGKERELVATISSSDGSTDYADSVKGRFTISRDNAKNTVYLQMNSLKPEDTEVYYCNADYSYGTTLDYWGQGSQVTVSS | low polyreactivity |
| QVKLVESGGGLVQAGGSLRLSCAASGSIFLSYAMGWYRQAPGKDRELVAAISGGGGSTYYADSVKGRFTISRDNAKNTVYLQMNSLKPEDTAVYYCAADYYYGDALSPYYPHWDFYYWGQGTQVTVSS | low polyreactivity |
| QVKLVESGGGLVQAGGSLRLSCAASGSIFWGYDMGWYRQAPGKERELVARISYSGGSTSYADSVKGRFTISRDNAKNTVYLQMNSLKPEDTAVFYCAADEGGFWWTYPYDSLGQGTQVTVSS | low polyreactivity |
| QVKLVESGGGLVQAGGSLRLSCAASGSTVVFNTMGWYRQAPGKERELVAAISTGDSTKYADSVKGRFTISRDNAKITVYLQMNSLKPVDTAVDYCAADTQDRTYYGWRQVGGYDYWGQGTQVTVSS | low polyreactivity |
| QVKLVESGGGLVQAGGSLRLSCADSGSIFWTYAIVWYRHAPGKERELVAAINSSDGTYYADSVKGRFTISRDNAKNTVYLQMNSLKPEDTAVYYCNADRDALFGYDYDYWGQGTQVTVSS | low polyreactivity |
| QVKLVESGGGLVQAGGSLRLSCAESGRIFHHYAMGWYRQAPGKERELVAAITGGGSTYYADSVKVRFTISRYNAKITVYLQMNSLKPEDTAVYYCAAPPFGYYEVGYDSWGQGSQVTVSS | low polyreactivity |
| QVKLVESGGGLVQAGGSLRLSFPASGRTFKYYAMGLYRQEPGKDRELVAAISWSGGSTYYADSVKGRFTISRDNEKNTVYLQMNSLKPEDTAVYYCAAVRHYHGTWYDYWGQGTQVTVSS | high polyreactivity |
| QVKLVESGGGLVQAGGSLRLTCDASGRIFSSYAMGWYRQAPGKERELVAAIRSSGDRTYYADSVKGRFTISRDNAKNTVYLQMNSLKPEDTAVYYCAARAVLKSWAYYYWGQGTQVTVSS | high polyreactivity |
| QVKLVESGGGLVQAGGSLSLSCAASARIFSAYAMGWYRQAPGKEMELVAAISYSGGSTYYADSVKGRFTIARDNAKNTVYLQMNSLKPEDTADYYCAADTVYGYQWGQGTQVTVSS | low polyreactivity |
| QVKLVESGGGLVQAVGSLRLSCAPSGFTLGSYAMGCYRQAPGKESELVAAITYSGSRTYYADSVKGRFTISRDNAKNTVYLQMNSLKPEDTAVYYCAAVTHYGFDYWGQGTQVTVSS | high polyreactivity |
| QVKLVETGGGLVQAGGSLRLSCAASGRTFTPYTMGRYRQAPGKEREFVAAITFRGGSTYYADSVKGRFTISRDIAKNTVYLQMNSLKPEDTEVYFCNARGHGGWGTSMYYWGHGTQVTVSS | high polyreactivity |

| Sequence | polyreactivity (PSR sort gate) |
| --- | --- |
| QVKRVESGGGIVQAGGSLRLSCAASGSTFHKNVMGWYRQEPGKERELVAAISIIGVRTYYADSVKGRFTISRDNAKNTVYLQINSLKQVDTAVYYCNTDTQNRRGSGRGFWGEGTQVTVSS | high polyreactivity |
| QVKRVESGGGLVQAGGSLRLSCAASGSIVVTNAMGWYRQAPGKERELVAAITSSGSTDYADSVKGRFTISRDNAKNTVSLLMKILKREDTAVYYCNADVATGIFYGYDSWGQGTQVTVSS | low polyreactivity |
| QVLLQESGGGLVLAGGSLRLGCAASGTISPAYYMGRYHQAPGKEREFVAAITYGTNTYYADSVKGRFTISRDNAKYTVYLQMHSLKPEDTAVYYCSATAGYNGAHDYWGQGTQVTVSS | low polyreactivity |
| QVLLQESGGGLVQAGGSLRLSCAAIGTISTDIRMGWYRLAPGKEREFVASIDGCSTTYYADSVTGRFTISRDNAKNTVYLQMNSLKPEDTAMFYCAAREATEFYLYYWGQGTQVTVSS | low polyreactivity |
| QVLLQESGGRLVQAGGSLRLGCEPSGTISPAYYMGRYHQAPGKEREFVAAITYGTNTYYADSVKGRCTISRDIAKNTVYLQMNSLKPEDSAVYYCSATAGYNGAHDYCGQGTQVTVSS | low polyreactivity |
| QVLLVESGGGIVQAGGSLRLSCAASGIIFYVNAMGWYRQAPGKERELVAAITFGGDSTYYADSVKGRFTISRDNAKNTVYLQMNSLKPEDTAVYYCATDGDPAYPEMEYWGQGTQVTVSS | low polyreactivity |
| QVLLVESGGGLVQAGGSLRLSCAASGFIFFKYAMGWYRQAPGKEREFVAAISKSGTSTYYADSVKGRFTISRDNAKNTVYLQLNILKPEDTAVYDCAARYGRGSAYPEYDYWGQGTQVTVSS | high polyreactivity |
| QVLLVESGGGLVQAGGSLRLSCAASGFIFPYNAMGWYRQAPGKERELVASISGSGRTNYADSVKGRFTISRDNAKNTVYLQMNSLKPEDTAVYYCNKRWYVQKGYDYWGQGTQVTVSS | high polyreactivity |
| QVLLVESGGGLVQAGGSLRLSCAASGRTFYWYAMGWYRQAPGKERELVAGISSGGGTYYADSVKGRFTISRDNAKNTVYLQMNSLKPEDTAVYYCAAASENIWVWQEYIEYDYWGQGTQVTVSS | low polyreactivity |
| QVLLVESGGGLVQAGGSLRLSCAASGSIFWGYDMGWYRQAPGKDSELVAVISWSTTSTYFADSVKGRFTISRDNANNTVYLLMNSLKAEDTAVYYCNSEAYQYWEFDYWGQGTQVTVSS | low polyreactivity |
| QVLLVESGGGLVQAGGSLRLSCAASGSTFNYNAMGWYRQAPGKERELVAVITSGGRTNYADSVKGRFTISRDNAKNTVYLQMNSLKPEDTAVYSCNAEHVSYHFNLKYSGESWGQGTQVTVSS | low polyreactivity |
| QVLLVESGGGLVQAGGSLRLSCAASGSTLYDYAMGWYRQAPGKETELVAAINGSGGSTYYADSVKGRFTISRDNAKNTVYLQMNSLKPEDTAVYYCNAKRYGFFYWQGDYCGQGTQVTVSS | low polyreactivity |
| QVLLVESGGGLVQAGGSLRLSCAASRSIFEVNPMGWYRQAPGKERELVAAISCSGGSTYYADSVKGRFTISRDNAKNTVYLQMNSLKPEDTAVYYCAARQAGYSGRKLYYWGQGTQVTVSS | low polyreactivity |
| QVLLVESGGGLVQAGGSLRLSCAATARNFKYNTMGWYRQAPGKERELVAAISISGGSTYYADSVKGRFRISRDNSKNTVYLQMNSLKPEDTAVYYCNADTTYLSDYVTFAYWGQVTQVTVSS | low polyreactivity |
| QVLLVESGGGLVQAGGSLRLSCAATGSIFVGYVMGWYRQAPGKERELVAAISRSGGRTYYADSVKGRFTISRDNAKNTVYLQMNSLKPEDTAVYYCAVRHRFYTAGYDYWGQGTQVTVSS | low polyreactivity |
| QVLLVESGGGLVQAGGTLRLSCADSGFTFVTYGMGWYRQEPGKERELVARISSSSTNYADSVKGRFTISRDNAKNTVYLQMKSLKPEDTEVYYCAAVHYRWWYRSAYDFWGQGTQVTVSS | low polyreactivity |
| QVLLVESGVGLVQAGGSLRLSCAASGRIFKLYAMGWYRQAPGKERELVAAITRRGGSTSYADSVKGRFTISRDNAKNTVYLQMNSLKPEDTAVYYCAASYTGRTVVQGYEYWGQGTQVTVSS | high polyreactivity |
| QVLLVESGVGLVQAGGSLRLSCASSGFTFYRNAMGWYRQAPGKERELVASISRSGGSTYYADSVKGRFTISRDNAKNTVYLQMNSLKPEDTAVYYCAADLWWIYPHKYYYWGQGTQVTVSS | high polyreactivity |
| QVNLVESGGGLVQAGGSLRLSCAASGIIFIAYAMRWYRQAPGKERELVADISIGGSTNYADSVKGRFTISRDNAKNTVYLEMNSLKPEDTAVYYCNAGGGFYGSTVEHDYWGKGTQVTVSS | low polyreactivity |
| QVPIVESGGGLVQAGGSLRLSCAAYGIIFRLNAMGWNTQAPGKERELVAAITRRGGTTYYADSVKGRFTISRDNAKNTVYLQMNSLKPEDTAVYYCNTFYYWQYDWGQGTQVTESS | high polyreactivity |
| QVPLVESGGGLGQAGGSLRLSCGASGSIFSLYAMGWSRLAPGKEREVVASLTWRGDSTYYADSVTGRFTISRDNAKNTVYLQMNSLKPEDTAVYNCNAVYYYAEPTSFGGYDYWGQGTQVTVSS | low polyreactivity |

Source: the nanobody polyreactivity screen of Harvey et al. (2022)
